{"source": "paper PMC12153270", "test_system": "MBP-ComGC (soluble globular head) (Streptococcus sanguinis 2908?)", "assay": "EMSA", "details": "2.5 mM Mg2+; 25 mM Tris-HCl pH 8, 2.5 mM MgCl2, 50 mM NaCl, room temperature 30 min, 120 ng pUC19 in 10 uL; 0.8% agarose in TAE", "data": [{"substance": "pUC19 plasmid", "values": [{"measurement": "binding", "value": "> 10", "unit": "µM"}]}]}
